Measured values reported in CN101273061A.

Assays:
[1] = biological target: 重组产生的C末端截短的RSV(A2毒株)F蛋白 (RSV(A2毒株)) (UniProt P03420)
[2] = biological target: 重组产生的C末端截短的RSV(A2毒株)F蛋白 (RSV(A2毒株)) (UniProt P03420); assay: SPR (BIAcore 3000); truncated F protein on CM5 chip at low density; off-rate at the instrument's detection limit, so an estimate

Chain of UniProt P03420 (P03420 26-524): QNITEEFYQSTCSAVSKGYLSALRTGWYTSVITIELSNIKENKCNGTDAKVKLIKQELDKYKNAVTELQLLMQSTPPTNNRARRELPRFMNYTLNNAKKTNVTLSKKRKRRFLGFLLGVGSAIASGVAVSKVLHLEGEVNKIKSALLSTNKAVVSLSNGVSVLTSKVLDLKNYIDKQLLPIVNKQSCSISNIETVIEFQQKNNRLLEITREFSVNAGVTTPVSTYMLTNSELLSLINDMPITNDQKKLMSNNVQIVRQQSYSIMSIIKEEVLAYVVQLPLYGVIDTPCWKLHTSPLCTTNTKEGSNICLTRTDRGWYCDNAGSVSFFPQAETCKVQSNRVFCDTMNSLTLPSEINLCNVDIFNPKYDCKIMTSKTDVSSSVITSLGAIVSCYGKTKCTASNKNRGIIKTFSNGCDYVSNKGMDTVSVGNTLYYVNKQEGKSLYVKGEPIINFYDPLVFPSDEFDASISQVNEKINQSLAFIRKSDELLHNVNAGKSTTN

Question: With A4B4L1FR-S28R(莫维珠单抗) (antibody) as the substance, how does the fold higher affinity than palivizumab [1] read?
Answer: 70 fold

Question: And the fold higher association rate (kon) than palivizumab [1]?
Answer: 4 fold

Question: And the fold lower dissociation rate (koff) than palivizumab [2]?
Answer: 17 fold
